Our source for the Kd values is paper PMC10996005 (2024).

Test [1] addresses T1, HIF-1α PAS-B (Homo sapiens, UniProt Q16665). Briefly: MST.
Test [2] deals with HIF-2α PAS-B (Homo sapiens, UniProt Q99814). Briefly: MST.
Target sequence in this assay (Q99814 240-350): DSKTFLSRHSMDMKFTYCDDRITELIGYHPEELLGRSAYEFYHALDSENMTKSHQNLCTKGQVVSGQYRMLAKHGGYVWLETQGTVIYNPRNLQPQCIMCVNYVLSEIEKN
Test [3] concerns the target T1, HIF-1α PAS-B. Description: FP.
For test [4], the target named is HIF-2α PAS-B (Homo sapiens, UniProt Q99814). Briefly: MST. The source holds these as a separate data set.
Target sequence in this assay (Q99814 240-350 G323E): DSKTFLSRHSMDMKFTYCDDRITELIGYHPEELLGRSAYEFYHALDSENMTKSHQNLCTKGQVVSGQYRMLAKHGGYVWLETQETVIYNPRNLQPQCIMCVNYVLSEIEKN

*1 amine or outer side, *2 acyl side, *3 side chain or, on linkers, in order; H or OH if unused. [ ]: non-standard residue; d: D form. Phe(4-OMe) = COc1ccc(C[C@H](N[*:1])C(=O)[*:2])cc1; Phe(4-I) = N[C@@H](Cc1ccc(I)cc1)C(=O)O; 1Nal = N[C@@H](Cc1cccc2ccccc12)C(=O)O; hPhe = N[C@@H](CCc1ccccc1)C(=O)O; 4Pal = N[C@@H](Cc1ccncc1)C(=O)O; Phg = N[C@H](C(=O)O)c1ccccc1

T1 sequence (Q16665 238-349): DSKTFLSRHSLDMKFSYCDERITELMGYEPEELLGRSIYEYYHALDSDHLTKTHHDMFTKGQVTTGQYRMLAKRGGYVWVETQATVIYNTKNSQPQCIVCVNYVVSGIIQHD

B1: cyclo-CRLLIF (peptide)
chain: CRLLIF
modifications: head-to-tail cyclic peptide
On to B1, for which the Kd in test [1] came to 14.5 µM; in test [2], 10.2 µM.

B2: cyclo-CRVIIF (peptide)
chain: CRVIIF
modifications: head-to-tail cyclic peptide
As for B2, the values for the Kd in test [1] and in test [2] were 65 µM and 123 µM, respectively.

B3: cyclo-CRLII(4-iodo)F (peptide)
chain: cyclo(CRLII[Phe(4-I)])
SMILES: CC[C@H](C)[C@@H]1NC(=O)[C@H](CC(C)C)NC(=O)[C@H](CCCNC(=N)N)NC(=O)[C@H](CS)NC(=O)[C@H](Cc2ccc(I)cc2)NC(=O)[C@H]([C@@H](C)CC)NC1=O
Take B3: the equilibrium dissociation constant (Kd) in test [1] is 0.821 µM; in test [2] it was 1.7 µM.

B4: cyclo-CRLIIF (peptide)
chain: cyclo(CRLIIF)
modifications: also: Cy5-labeled HIF-1α
In test [3], B4 displayed a Kd of 4.6 µM.

B5: cyclo-CRLII(Phg) (peptide)
chain: cyclo(CRLII[Phg])
SMILES: CC[C@H](C)[C@@H]1NC(=O)[C@H](CC(C)C)NC(=O)[C@H](CCCNC(=N)N)NC(=O)[C@H](CS)NC(=O)[C@H](c2ccccc2)NC(=O)[C@H]([C@@H](C)CC)NC1=O
As to B5, in test [1], the Kd is 5.8 µM.

B6: cyclo-CRLIIF (peptide)
chain: CRLIIF
modifications: head-to-tail cyclic peptide
In test [1], B6 registered a Kd of 3.8 µM.

B7: cyclo-CKLLIF (peptide)
chain: CKLLIF
modifications: head-to-tail cyclic peptide
The molecule B7 displayed a Kd in test [1] of 12 µM.

B8: cyclo-CRLII(hF) (peptide)
chain: cyclo(CRLII[hPhe])
SMILES: CC[C@H](C)[C@@H]1NC(=O)[C@H](CC(C)C)NC(=O)[C@H](CCCNC(=N)N)NC(=O)[C@H](CS)NC(=O)[C@H](CCc2ccccc2)NC(=O)[C@H]([C@@H](C)CC)NC1=O
As to B8, the Kd in test [1] is 1.2 µM.

B9: cyclo-CRLII(4-iodo)F (peptide)
chain: cyclo(CRLII[Phe(4-I)])
SMILES: CC[C@H](C)[C@@H]1NC(=O)[C@H](CC(C)C)NC(=O)[C@H](CCCNC(=N)N)NC(=O)[C@H](CS)NC(=O)[C@H](Cc2ccc(I)cc2)NC(=O)[C@H]([C@@H](C)CC)NC1=O
Take B9: binding in test [4] was characterised by a dissociation constant (Kd) of 7.2 µM.

B10: cyclo-CRLII(4-Pal) (peptide)
chain: cyclo(CRLII[4Pal])
SMILES: CC[C@H](C)[C@@H]1NC(=O)[C@H](CC(C)C)NC(=O)[C@H](CCCNC(=N)N)NC(=O)[C@H](CS)NC(=O)[C@H](Cc2ccncc2)NC(=O)[C@H]([C@@H](C)CC)NC1=O
The molecule B10 gave a dissociation constant (Kd) in test [1] of 39.6 µM.

B11: cyclo-CRLII(D-F) (peptide)
chain: cyclo(CRLII[dF])
SMILES: CC[C@H](C)[C@@H]1NC(=O)[C@H](CC(C)C)NC(=O)[C@H](CCCNC(=N)N)NC(=O)[C@H](CS)NC(=O)[C@@H](Cc2ccccc2)NC(=O)[C@H]([C@@H](C)CC)NC1=O
In test [1], B11 had a Kd of 6.2 µM.

B12: cyclo-CKLIIF (peptide)
chain: CKLIIF
modifications: head-to-tail cyclic peptide
Regarding B12, the Kd in test [1] amounted to 2.6 µM; in test [2], 2.2 µM.

B13: cyclo-CRLII(4-Bz)F (peptide)
chain: cyclo(CRLII[Phe(4-Bz)])
B13 had a Kd in test [1] of 1.6 µM.

B14: cyclo-CRLII(4-OMe)F (peptide)
chain: cyclo(CRLII[Phe(4-OMe)])
The molecule B14 came in with a Kd in test [1] of 11.2 µM.

B15: cyclo-CRLII(1-Nal) (peptide)
chain: cyclo(CRLII[1Nal])
SMILES: CC[C@H](C)[C@@H]1NC(=O)[C@H](CC(C)C)NC(=O)[C@H](CCCNC(=N)N)NC(=O)[C@H](CS)NC(=O)[C@H](Cc2cccc3ccccc23)NC(=O)[C@H]([C@@H](C)CC)NC1=O
Consider B15, for which binding in test [1] was put at a Kd of 1.7 µM.
